B1: TPR t1 (parent)
chain: GACCAAUCUGCCCUCAGAGCUCGAGAACAUCUUCGGAUGCAGAGGAGGCAGGCUUCGGUGGCGCGAUAGCGCCAACGUCCUCAACCUCCAAUGCAUCCCACCACAUGAUGAUGCCUGAAGAGCCUUGGUUUUUUG

Variants of: B1
Experiment: polymerase ribozyme fitness, log enrichment relative to wild type (log ratio); higher = more active; in vitro selection for triplet polymerase activity
Procedure, shortened: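 Streptavidin-bead capture of gel-excised extended constructs, followed by RT-PCR, closed a single triplicate in vitro selection round. That round began by annealing PCR-built, transcribed mutant libraries of each subunit of a heterodimeric triplet polymerase ribozyme with a biotinylated primer, the partner subunit and triplets, then incubating them frozen at −7 °C. After Illumina sequencing of inputs and outputs, genotypes needed ≥10 input reads and ≥1 read per output. Fitness is the base-2 logarithm of genotype enrichment over wild-type enrichment, using inverse-variance-weighted replicate averages.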

In order of rising “polymerase ribozyme fitness (log ratio)” value:
1. C20A G63A C102G G113C C115A G117C  -8.43
2. G19U G25A C53U C64G G107C C114G  -8.12
3. C20G G51A G61A C85G A121U  -7.66
4. U21C A50U C70U C99U A111U  -7.45
5. C20G C28U A37U A43U G45A U106A C123G  -7.36
6. G19U G107A G120A U125A  -7.29
7. U21C G23A G44C G48A A90U C97G C101U C102U C114A  -7.25
8. U21G A26U C72A C104A G110U U125G  -7.09
9. C20A G48U C70A U78G G113A G117C  -7.02
10. C22A G48U C49U C62G G69A A108G A111C  -6.98
11. C20A C62G A66C C104G U116C C123G G128U  -6.82
12. C20U C22G G47A C72U C73U C101G A119G G122U  -6.75
13. U21A G23U G42C A68G C94A U112A  -6.75
14. U21C C56U C62A G63A A90C C101A U112C  -6.74
15. C22A C70U G77C  -6.73
16. C20G G48A G60U U96A A105U G110U A118U  -6.72
17. C22A G52A G60A G117U C123U U131C  -6.69
18. C20G A50C C80U G93A G120C U125G  -6.66
19. C22G C34U U38A U54C A83C U106G U109A C114G  -6.61
20. G19U G51A G60A G77C G113U  -6.6
21. C20G A43G G48A C72G U106A C123A U129A  -6.54
22. C22A C31G G60U U96A  -6.4
23. C20U C22A G23U G44U G63A C88G A103C U109A  -6.38
24. C20U G23A G61A U112A G113A G122C U130C  -6.32
25. C22A G93U  -6.27
26. C20G G63A  -6.16
27. C22A C31A C64G C97U C115A G127U U129G U130G  -6.15
28. C20G A50C  -6.14
29. C20A G61U G63A C72U U92C C99G C101A C123U  -6.1
30. C22G A41C G44C C79G A90C  -6.07
31. C20G G107A C114U G122A  -6.03
32. C22A G36A U55C U96A A111U  -6.03
33. C20G U32G C80A C99A C124G  -5.93
34. C20A U32G G44A C73A C114G U132A  -5.73
35. C22A U116C A121G U129C  -5.72
36. C20A C31U G44C A68C G113C U116C G135C  -5.66
37. C22G C53G G63C G113U  -5.64
38. C20A G69A  -5.6
39. U21G U54C G58A U81A A91G A95U G113A U125G  -5.59
40. U21A C62A C89U G110A U112C  -5.55
41. G19U G23C A27G A41C A46U G47C C70U C115U G135A  -5.42
42. C20G G117C  -5.4
43. C20G G69A G113A  -5.37
44. C22G A46U C76U C98U  -5.32
45. C20U A43G C62U U78G U87A C89G  -5.31
46. C20U A26G A43G C53G C62A C82U  -5.29
47. C20G G44C C72G A95G  -5.22
48. C20G C53U G60A U96A  -5.21
49. G19U G45U G60U A119U  -5.1
50. C22A G39A  -5.08
51. U21C C22U C53G G57U G60A  -5.06
52. C20G G69U C99U  -5.06
53. C20U C94G C101U U106A  -5.04
54. C22A C101U U106C  -5.01
55. U21C G77A C88U U106C G110A  -5
56. C22A C53G  -5
57. U21A C49G C62A G113C  -4.99
58. U21A A43U G61U C102A  -4.93
59. C22A C40A C73A C123U  -4.93
60. C20A C22G G113A U132A  -4.93
61. C20U U38A A50U G71A  -4.89
62. C22A U55G  -4.85
63. C22A C40G G58C G60A  -4.83
64. C20G G63C  -4.72
65. C22A C56G  -4.66
66. G19U C79U C82U A95C C101A  -4.63
67. C22G A103U  -4.6
68. C20G A41U C115U  -4.6
69. C20G C72A C115A  -4.55
70. C22A G61A  -4.54
71. C22A G44U G93A C124U  -4.53
72. C20A C76U C82G U96G  -4.53
73. C20A G113C  -4.5
74. C20U A26G G60C A90C  -4.37
75. C22A U55C  -4.37
76. C20A C70A C123A U130A  -4.36
77. G19U G110A  -4.35
78. C20U C22G A50C C97U U106A A121C  -4.3
79. C20A U87G U92G  -4.3
80. U21C A41G G44A C98U  -4.24
81. U21C C22A G69C  -4.23
82. C20A G45C G57C C73G U106C U130G  -4.17
83. U21G G48C G63A  -4.12
84. C20G U106C  -4.11
85. C20A G45U  -4.09
86. C20A G42C G48U G122U  -4.09
87. C22A C49U C73G  -4.03
88. C20U G36U C70U G135U  -3.95
89. C20G C56U A84G A111C C115G A121C U132A  -3.92
90. C22G A27C U59A A95G  -3.9
91. C20G U116C  -3.78
92. C22G A111C  -3.66
93. C20U G44U A50G A74G  -3.66
94. C20A C56G  -3.63
95. C20U G52U C53U C56A C123A  -3.62
96. G19U C56U C89G  -3.6
97. C20A C72G U131G  -3.6
98. C20A G39C  -3.59
99. C20A U32A  -3.55
100. C20A A91C  -3.55
101. C20G A118U  -3.53
102. C20A G63A  -3.49
103. C20U C70U C102U  -3.45
104. U21A C22G A27U C56U C114U  -3.34
105. U21A U59C G69U C123A G128C  -3.33
106. C20A G42C A43G  -3.32
107. G19U G61A  -3.31
108. U21C C70G C94U A111G G128A U131A  -3.27
109. G19U C56A G113C  -3.24
110. C20A C53U U87A  -3.21
111. C20A C70U  -3.19
112. C20U A46C C72G  -3.17
113. C22G C49A G117U  -3.11
114. C20A U112C U116A  -3.11
115. C20G C53A G57U A91C A95G U109G  -3.11
116. C20A A74U  -3.01
117. C20U C56A C73U U129G U130A  -3
118. U21G C40A U92A  -2.98
119. C20A G36U  -2.98
120. U21A A43U G60A C115U  -2.81
121. C20U A91U  -2.81
122. C20U A37U C72G C101A  -2.76
123. U21A G39C C49U G63A A75G A121C  -2.73
124. C20G G113A  -2.69
125. U21A G45A G58A G60U A100U C101G  -2.68
126. U21A C34A C82A C123U U133G  -2.66
127. C20U G63U G93A C114G  -2.6
128. U21G G117A  -2.55
129. C20A C56U  -2.54
130. C20A C56A  -2.5
131. G19U G120U  -2.46
132. U21A C40A A46U A90U G93U  -2.45
133. C22G A37U G69U U87G  -2.42
134. C20U C72G A91G C101A C114G  -2.36
135. U21C C56A G58A G113C U132A  -2.29
136. C22G C73U  -2.27
137. C20U C53G G69C  -2.15
138. U21C G61C  -2.11
139. C20U C76A  -2.08
140. C20U A43U  -2.08
141. U21G A84C  -2.02
142. C20A G69U  -1.94
143. U21A G42C  -1.94
144. C20U U96G  -1.9
145. C20A G57C C62U  -1.88
146. U21A A46U C53A G63C  -1.83
147. U21C U78C U96C C114A  -1.81
148. C20G A37G G69U C79U G117C  -1.73
149. U21A C94G  -1.64
150. U21A G44A C62U  -1.4
151. C20U G61A C88A  -1.39
152. C20G G113C  -1.32
153. C20U A43G C62U U112C  -1.04
154. U21A A66U U112G  -0.949
155. C20U G120C  -0.868
156. C20U C123A  -0.867
157. G19U C53G C73A U112A G135A  -0.754
158. U21C G77C  -0.73
159. G19U U55G C70U U87G A95C U112C C114A  -0.702
160. U21A C72A U125G  -0.653
161. U21A G36A  -0.614
162. U21G C56U U78G C86U A121G  -0.445
163. U21A G57C G120A  -0.312
164. U21A C104U  -0.273
165. U21A C124G  0.373
166. C20U C124G  0.389
167. U21C C124U  1.84

From the RNAGym collection of RNA variant scans (doi:10.1073/pnas.2313332121)
